For one substance, stoichiometry N results are on record in PMC10779274.

“And” between values parts separate entries of the source, which are not always exact repeats. Identical values can stand only once.

The target of test [1] is Lsm protein of Haloferax mediterranei (Haloferax mediterranei). In words: SEC; HiPrep 16/60 Sephacryl S-200 HR, 20 mM Tris-HCl pH 7.5, 1 M NaCl, 0.5 mL/min, calibrated with protein standards; without RNA. Background: Size exclusion chromatography separates by hydrodynamic size, large species first.
Test [2] shares this target. Briefly: SEC; HiPrep 16/60 Sephacryl S-200 HR, 20 mM Tris-HCl pH 7.5, 1.5 M NaCl, 0.5 mL/min, calibrated with protein standards; without RNA; peaks checked by Western blot with anti-Lsm.
For test [3] the target is unchanged. In words: SEC; HiPrep 16/60 Sephacryl S-200 HR, 20 mM Tris-HCl pH 7.5, 0.5 M NaCl, 0.5 mL/min, calibrated with protein standards; without RNA; peaks checked by Western blot with anti-Lsm.
Test [4] has the same target. Briefly: SEC; HiPrep 16/60 Sephacryl S-200 HR, 20 mM Tris-HCl pH 7.5, 2 M NaCl, 0.5 mL/min, calibrated with protein standards; without RNA.

Broadly, the stoichiometry N is the number of molecules, sites or subunits per partner or assembly. As to “Lsm protein of Haloferax mediterranei (natural protein)”, the stoichiometry N was 36 subunits in test [1]; 72 subunits and 36 subunits in test [2]; 36 subunits in test [3]; 36 subunits in test [4].
